Results from the supplement of paper PMC9112550, “Optimization of the antimicrobial peptide Bac7 by deep mutational scanning” (BMC Biology, 2022).

These sequences were tested on Escherichia coli TOP10 (assay: shrunken log2 fold change of peptide-encoding DNA abundance (4.5 h post-induction vs induction); higher = less antimicrobial activity (less host growth inhibition)). Settings: time post-induction: 4.5 h; library: site-saturation at positions 5, 18, 19, 20.
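Also: peptides expressed intracellularly from a pBAD plasmid library in pooled LB shake-flask culture, induced with 0.3% L-arabinose, DNA abundance read by NGS, three biological replicates, DESeq2 with apeglm shrinkage.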

Sequence | shrunken log2 fold change
RRIRRRPPRLPRPRPRPTNLPRP | 0.068
RRIRLRPPRLPRPRPRPRCSPRP | 0.0191
RRIRCRPPRLPRPRPRPCSDPRP | -0.0728
RRIRARPPRLPRPRPRPCLNPRP | -0.424
RRIRQRPPRLPRPRPRPNYIPRP | -0.445
RRIRIRPPRLPRPRPRPFRAPRP | -0.332
RRIRFRPPRLPRPRPRPLWNPRP | -0.89
RRIRHRPPRLPRPRPRPQYLPRP | 0.00943
RRIRWRPPRLPRPRPRPCIMPRP | -0.339
RRIRHRPPRLPRPRPRPWPWPRP | 0.199
RRIRIRPPRLPRPRPRPSRMPRP | -0.271
RRIRDRPPRLPRPRPRPWTEPRP | 0.0384
RRIRHRPPRLPRPRPRPPGNPRP | 0.133
RRIRHRPPRLPRPRPRPMCYPRP | 0.118
RRIRKRPPRLPRPRPRPPICPRP | 0.684
RRIRFRPPRLPRPRPRPDWKPRP | 0.0379
RRIRPRPPRLPRPRPRPPSLPRP | 0.381
RRIRSRPPRLPRPRPRPDMVPRP | -0.00858
RRIRIRPPRLPRPRPRPNMVPRP | -0.383
RRIRWRPPRLPRPRPRPNPIPRP | -0.149
RRIRCRPPRLPRPRPRPSMPPRP | -0.558
RRIRVRPPRLPRPRPRPRQCPRP | 0.33
RRIRCRPPRLPRPRPRPTGPPRP | 0.669
RRIRHRPPRLPRPRPRPYDIPRP | -0.387
RRIRFRPPRLPRPRPRPADCPRP | -0.282

Sequence | shrunken log2 fold change
RRIRSRPPRLPRPRPRPEKPPRP | 0.014
RRIRVRPPRLPRPRPRPWKAPRP | 0.0634
RRIRARPPRLPRPRPRPFQRPRP | -0.0439
RRIRTRPPRLPRPRPRPDIYPRP | -0.138
RRIRSRPPRLPRPRPRPPDEPRP | 0.813
RRIRERPPRLPRPRPRPYKVPRP | -0.0366
RRIRIRPPRLPRPRPRPKRNPRP | -0.0625
RRIRQRPPRLPRPRPRPGHDPRP | -0.112
RRIRHRPPRLPRPRPRPIFPPRP | 0.033
RRIRVRPPRLPRPRPRPWLRPRP | -0.171
RRIRMRPPRLPRPRPRPKQIPRP | 0.371
RRIRERPPRLPRPRPRPRHWPRP | 0.0819
RRIRHRPPRLPRPRPRPYDNPRP | -0.0737
RRIRPRPPRLPRPRPRPQHHPRP | -0.302
RRIRRRPPRLPRPRPRPDIRPRP | -0.294
RRIRDRPPRLPRPRPRPGSGPRP | 0.499
RRIRWRPPRLPRPRPRPMRHPRP | 0.228
RRIRFRPPRLPRPRPRPQGSPRP | -0.0076
RRIRDRPPRLPRPRPRPGLLPRP | 0.16
RRIRKRPPRLPRPRPRPCDAPRP | 0.0682
RRIRPRPPRLPRPRPRPCISPRP | -0.0753
RRIRGRPPRLPRPRPRPAADPRP | 2.21
RRIRRRPPRLPRPRPRPCFPPRP | 0.592
RRIRFRPPRLPRPRPRPKEEPRP | 0.0372
RRIRLRPPRLPRPRPRPTCIPRP | -0.123

Sequence | shrunken log2 fold change
RRIRRRPPRLPRPRPRPHDEPRP | 0.18
RRIRRRPPRLPRPRPRPYSHPRP | -0.528
RRIRIRPPRLPRPRPRPLSFPRP | -0.687
RRIRRRPPRLPRPRPRPCHNPRP | -0.278
RRIRKRPPRLPRPRPRPPVGPRP | 1.04
RRIRERPPRLPRPRPRPCKVPRP | -0.00382
RRIRNRPPRLPRPRPRPCLYPRP | 0.0767
RRIRMRPPRLPRPRPRPCSLPRP | -0.0103
RRIRARPPRLPRPRPRPIQTPRP | -0.0208
RRIRIRPPRLPRPRPRPTHCPRP | -0.00414
RRIRKRPPRLPRPRPRPAIGPRP | 1.04
RRIRDRPPRLPRPRPRPTLCPRP | 0.33
RRIRGRPPRLPRPRPRPNTQPRP | 0.224
RRIRERPPRLPRPRPRPGDMPRP | -0.116
RRIRTRPPRLPRPRPRPAGPPRP | -0.257
RRIRFRPPRLPRPRPRPTDSPRP | -0.0233
RRIRGRPPRLPRPRPRPCNLPRP | -0.0958
RRIRPRPPRLPRPRPRPYMLPRP | -0.781
RRIRGRPPRLPRPRPRPEVTPRP | 0.168
RRIRRRPPRLPRPRPRPGKTPRP | 0.104
RRIRHRPPRLPRPRPRPRGGPRP | 0.504
RRIRIRPPRLPRPRPRPNPHPRP | -0.581
RRIRTRPPRLPRPRPRPYNGPRP | -0.203
RRIRVRPPRLPRPRPRPYNCPRP | -0.432
RRIRSRPPRLPRPRPRPIRGPRP | -0.0109

Sequence | shrunken log2 fold change
RRIRGRPPRLPRPRPRPSCSPRP | 0.295
RRIRVRPPRLPRPRPRPIPNPRP | 0.0329
RRIRKRPPRLPRPRPRPLVEPRP | 0.734
RRIRARPPRLPRPRPRPCWRPRP | -0.0211
RRIRKRPPRLPRPRPRPYCTPRP | -0.19
RRIRKRPPRLPRPRPRPKGLPRP | -0.00973
RRIRQRPPRLPRPRPRPPDVPRP | 0.124
RRIRRRPPRLPRPRPRPVELPRP | 0.0415
RRIRLRPPRLPRPRPRPPNKPRP | -0.123
RRIRQRPPRLPRPRPRPVECPRP | 0.0104
RRIRRRPPRLPRPRPRPAVIPRP | 0.00992
RRIRGRPPRLPRPRPRPETPPRP | 3.43
RRIRLRPPRLPRPRPRPVDTPRP | -0.142
RRIRTRPPRLPRPRPRPEKNPRP | 0.0495
RRIRFRPPRLPRPRPRPDQKPRP | -0.0128
RRIRGRPPRLPRPRPRPYPLPRP | -0.236
RRIRKRPPRLPRPRPRPTHPPRP | 0.932
RRIRYRPPRLPRPRPRPYFAPRP | -0.796
RRIRCRPPRLPRPRPRPYTGPRP | -0.554
RRIRNRPPRLPRPRPRPCCVPRP | -0.667
RRIRHRPPRLPRPRPRPCWNPRP | -0.151
RRIRIRPPRLPRPRPRPEGDPRP | 0.574
RRIRERPPRLPRPRPRPELCPRP | 0.511
RRIRYRPPRLPRPRPRPLKPPRP | -0.696
RRIRNRPPRLPRPRPRPIYMPRP | -0.473

Sequence | shrunken log2 fold change
RRIRTRPPRLPRPRPRPTQCPRP | 0.227
RRIRSRPPRLPRPRPRPAEEPRP | 0.164
RRIRCRPPRLPRPRPRPKVFPRP | 0.0792
RRIRTRPPRLPRPRPRPDQMPRP | 0.0643
RRIRERPPRLPRPRPRPWDKPRP | -0.00884
RRIRVRPPRLPRPRPRPRCFPRP | 0.05
RRIRKRPPRLPRPRPRPDLAPRP | 0.042
RRIRDRPPRLPRPRPRPTHHPRP | 0.224
RRIRRRPPRLPRPRPRPWYSPRP | -0.0705
RRIRVRPPRLPRPRPRPGWFPRP | 0.22
RRIRNRPPRLPRPRPRPTWRPRP | 0.421
RRIRMRPPRLPRPRPRPLFMPRP | 0.0387
RRIRARPPRLPRPRPRPNDMPRP | -0.00462
RRIRDRPPRLPRPRPRPFCFPRP | 0.265
RRIRTRPPRLPRPRPRPDEQPRP | 0.0127
RRIRLRPPRLPRPRPRPWVYPRP | 0.0113
RRIRKRPPRLPRPRPRPDQGPRP | -0.0154
RRIRRRPPRLPRPRPRPPLNPRP | 0.696
RRIRLRPPRLPRPRPRPSKAPRP | -0.0252
RRIRKRPPRLPRPRPRPAEFPRP | 0.0773
RRIRMRPPRLPRPRPRPCYQPRP | 2.31
RRIRIRPPRLPRPRPRPESFPRP | -0.0048
RRIRERPPRLPRPRPRPPEPPRP | 0.333
RRIRNRPPRLPRPRPRPFYEPRP | -0.233
RRIRLRPPRLPRPRPRPLADPRP | -0.0654

Sequence | shrunken log2 fold change
RRIRARPPRLPRPRPRPAQCPRP | 0.469
RRIRRRPPRLPRPRPRPKGNPRP | 0.0579
RRIRWRPPRLPRPRPRPSVRPRP | 0.117
RRIRWRPPRLPRPRPRPSMRPRP | 0.707
RRIRVRPPRLPRPRPRPYWDPRP | 0.0849
RRIRRRPPRLPRPRPRPPQQPRP | 0.951
RRIRWRPPRLPRPRPRPHFRPRP | 0.0695
RRIRPRPPRLPRPRPRPDPTPRP | 0.166
RRIRRRPPRLPRPRPRPCSRPRP | 0.00396
RRIRNRPPRLPRPRPRPGCIPRP | -0.173
RRIRTRPPRLPRPRPRPRCAPRP | 0.0538
RRIRCRPPRLPRPRPRPDCMPRP | 0.0384
RRIRYRPPRLPRPRPRPMNPPRP | 0.02
RRIRIRPPRLPRPRPRPDNYPRP | -0.199
RRIRCRPPRLPRPRPRPHGHPRP | -0.167
RRIRFRPPRLPRPRPRPDGAPRP | -0.0432
RRIRNRPPRLPRPRPRPHFNPRP | -0.608
RRIRCRPPRLPRPRPRPYSTPRP | -0.818
RRIRLRPPRLPRPRPRPLSPPRP | 0.0444
RRIRLRPPRLPRPRPRPQWTPRP | 0.107
RRIRDRPPRLPRPRPRPAKDPRP | -0.0015
RRIRHRPPRLPRPRPRPWWHPRP | -0.113
RRIRARPPRLPRPRPRPMPDPRP | 0.74
RRIRRRPPRLPRPRPRPHIGPRP | -0.155
RRIRERPPRLPRPRPRPKSPPRP | 0.163
